In IntAct's records for PubMed 29039417:

B1: BBSome-interacting protein 1 (Homo sapiens), A8MTZ0 (parent)
chain: MLKAAAKRPELSGKNTISNNSDMAEVKSMFREVLPKQGPLFVEDIMTMVLCKPKLLPLKSLTLEKLEKMHQAAQNTIRQQEMAEKDQRQITH
partner: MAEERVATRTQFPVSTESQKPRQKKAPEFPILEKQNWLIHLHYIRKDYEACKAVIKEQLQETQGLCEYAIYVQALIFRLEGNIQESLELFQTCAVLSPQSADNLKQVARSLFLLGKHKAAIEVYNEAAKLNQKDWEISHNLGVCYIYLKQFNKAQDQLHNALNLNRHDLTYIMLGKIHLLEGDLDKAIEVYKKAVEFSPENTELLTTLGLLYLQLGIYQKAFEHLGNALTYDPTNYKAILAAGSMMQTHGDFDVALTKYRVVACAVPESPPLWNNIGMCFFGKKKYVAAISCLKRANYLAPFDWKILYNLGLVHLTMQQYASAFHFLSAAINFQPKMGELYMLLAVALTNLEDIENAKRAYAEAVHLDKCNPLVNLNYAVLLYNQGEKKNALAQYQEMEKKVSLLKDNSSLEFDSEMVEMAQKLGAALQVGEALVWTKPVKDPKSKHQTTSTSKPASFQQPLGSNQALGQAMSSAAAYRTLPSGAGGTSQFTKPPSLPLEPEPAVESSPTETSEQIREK

Variants of: B1
Conditions: with bbs4_human BBS4, Q96RK4

Question: For MLKAAAKRPELSGKNTISNNSDMAEVKSMFREVLPKQGPLFVEDIMTMVLCKPKLLPLKALTLEKLEKMHQAAQNTIRQQEMAEKDQRQITH, which “effect of a mutation on the interaction” value is on record?
Answer: with no effect

Question: With MLKAAAKRPELSGKNTISNNSDMAEVKSMFREVLPKQGPLFVEDIMTMVLCKPKKLPLKSLTLEKLEKMHQAAQNTIRQQEMAEKDQRQITH as the variant, how does the “effect of a mutation on the interaction” value read?
Answer: with no effect

Question: With MLKAAAKRPELSGKNTISNNSDMAEVKSMFREVLPKQGPLFVEDIMTMVLCKPKALPLKSLTLEKLEKMHQAAQNTIRQQEMAEKDQRQITH as the variant, how does the “effect of a mutation on the interaction” value read?
Answer: with no effect

Question: MLKAAAKRPELSGKNTISNNSDMAEVKSMFREVLPKQGPLFVEDIMTMVLCKPKELPLKSLTLEKLEKMHQAAQNTIRQQEMAEKDQRQITH was tested. Which “effect of a mutation on the interaction” value did it give?
Answer: with no effect

Question: MLKAAAKRPELSGKNTISNNSDMAEVKSMFREVLPKQGPLFVEDIMTMVLCKPKLLPLKSLTAEKLEKMHQAAQNTIRQQEMAEKDQRQITH was tested. Which “effect of a mutation on the interaction” value did it give?
Answer: with no effect

Question: MLKAAAKRPELSGKNTISNNSDMAEVKSMFREVLPKQGPLFVEDIMTMVLCKPKLLPLKSLTKEKLEKMHQAAQNTIRQQEMAEKDQRQITH was tested. Which “effect of a mutation on the interaction” value did it give?
Answer: with no effect

Question: How did the “effect of a mutation on the interaction” value turn out when MLKAAAKRPELSGKNTISNNSDMAEVKSMFREVLPKQGPLFVEDIMTMVLCKPKLLPLKSLTEEKLEKMHQAAQNTIRQQEMAEKDQRQITH was run?
Answer: with no effect

Question: For MLKAAAKRPELSGKNTISNNSDMAEVKSMFREVLPKQGPLFVEDIMTMVLCKPKLLPLKSLTLEKLAKMHQAAQNTIRQQEMAEKDQRQITH, which “effect of a mutation on the interaction” value is on record?
Answer: disrupting interaction strength

Question: Which “effect of a mutation on the interaction” value does the source give for MLKAAAKRPELSGKNTISNNSDMAEVKSMFREVLPKQGPLFVEDIMTMVLCKPKLLPLKSLTLEKLKKMHQAAQNTIRQQEMAEKDQRQITH here?
Answer: with no effect

Question: MLKAAAKRPELSGKNTISNNSDMAEVKSMFREVLPKQGPLFVEDIMTMVLCKPKLLPLKSLTLEKLSKMHQAAQNTIRQQEMAEKDQRQITH was tested. Which “effect of a mutation on the interaction” value did it give?
Answer: disrupting interaction strength

Question: How did the “effect of a mutation on the interaction” value turn out when MLKAAAKRPELSGKNTISNNSDMAEVKSMFREVLPKQGPLFVEDIMTMVLCKPKLLPLASLTLEKLEKMHQAAQNTIRQQEMAEKDQRQITH was run?
Answer: with no effect

Question: Which “effect of a mutation on the interaction” value does the source give for MLKAAAKRPELSGKNTISNNSDMAEVKSMFREVLPKQGPLFVEDIMTMVLCKPKLLPLESLTLEKLEKMHQAAQNTIRQQEMAEKDQRQITH here?
Answer: with no effect

Question: Which “effect of a mutation on the interaction” value does the source give for MLKAAAKRPELSGKNTISNNSDMAEVKSMFREVLPKQGPLFVEDIMTMVLCKPKLLPLKSLSLEKLEKMHQAAQNTIRQQEMAEKDQRQITH here?
Answer: disrupting interaction strength

Question: For MLKAAAKRPELSGKNTISNNSDMAEVKSMFREVLPKQGPLFVEDIMTMVLCKPKLLPLKSLALEKLEKMHQAAQNTIRQQEMAEKDQRQITH, which “effect of a mutation on the interaction” value is on record?
Answer: with no effect

Question: Which “effect of a mutation on the interaction” value does the source give for MLKAAAKRPELSGKNTISNNSDMAEVKSMFREVLPKQGPLFVEDIMTMVLCKPKLLPLKSLKLEKLEKMHQAAQNTIRQQEMAEKDQRQITH here?
Answer: with no effect

Question: How did the “effect of a mutation on the interaction” value turn out when MLKAAAKRPELSGKNTISNNSDMAEVKSMFREVLPKQGPLFVEDIMTMVLCKPKLLPLKSLELEKLEKMHQAAQNTIRQQEMAEKDQRQITH was run?
Answer: with no effect

Question: Which “effect of a mutation on the interaction” value does the source give for MLKAAAKRPELSGKNTISNNSDMAEVKSMFREVLPKQGPLFVEDIMTMVLCKPALLPLKSLTLEKLEKMHQAAQNTIRQQEMAEKDQRQITH here?
Answer: with no effect

Question: With MLKAAAKRPELSGKNTISNNSDMAEVKSMFREVLPKQGPLFVEDIMTMVLCKPELLPLKSLTLEKLEKMHQAAQNTIRQQEMAEKDQRQITH as the variant, how does the “effect of a mutation on the interaction” value read?
Answer: with no effect

Question: With MLKAAAKRPELSGKNTISNNSDMAEVKSMFREVLPKQGPLFVEDIMTMVLCKPTLLPLKSLTLEKLEKMHQAAQNTIRQQEMAEKDQRQITH as the variant, how does the “effect of a mutation on the interaction” value read?
Answer: disrupting interaction strength

Question: Which “effect of a mutation on the interaction” value does the source give for MLKAAAKRPELSGKNTISNNSDMAEVKSMFREVLPKQGPLFVEDIMTMVLCKPYLLPLKSLTLEKLEKMHQAAQNTIRQQEMAEKDQRQITH here?
Answer: disrupting interaction strength

Question: With MLKAAAKRPELSGKNTISNNSDMAEVKSMFREVLPKQGPLFVEDIMTMVLCKPKLLPLKSATLEKLEKMHQAAQNTIRQQEMAEKDQRQITH as the variant, how does the “effect of a mutation on the interaction” value read?
Answer: with no effect

Question: With MLKAAAKRPELSGKNTISNNSDMAEVKSMFREVLPKQGPLFVEDIMTMVLCKPKLLPLKSETLEKLEKMHQAAQNTIRQQEMAEKDQRQITH as the variant, how does the “effect of a mutation on the interaction” value read?
Answer: with no effect

Question: How did the “effect of a mutation on the interaction” value turn out when MLKAAAKRPELSGKNTISNNSDMAEVKSMFREVLPKQGPLFVEDIMTMVLCKPKLLPLKSKTLEKLEKMHQAAQNTIRQQEMAEKDQRQITH was run?
Answer: with no effect

Question: Which “effect of a mutation on the interaction” value does the source give for MLKAAAKRPELSGKNTISNNSDMAEVKSMFREVLPKQGPLFVEDIMTMVLCKPKLLPLKSLTLEKEEKMHQAAQNTIRQQEMAEKDQRQITH here?
Answer: with no effect

Question: Which “effect of a mutation on the interaction” value does the source give for MLKAAAKRPELSGKNTISNNSDMAEVKSMFREVLPKQGPLFVEDIMTMVLCKPKLLPLKSLTLEKAEKMHQAAQNTIRQQEMAEKDQRQITH here?
Answer: with no effect

Question: With MLKAAAKRPELSGKNTISNNSDMAEVKSMFREVLPKQGPLFVEDIMTMVLCKPKLLPLKSLTLEKKEKMHQAAQNTIRQQEMAEKDQRQITH as the variant, how does the “effect of a mutation on the interaction” value read?
Answer: with no effect
